Shc phosphorylation in L973F-IR cells against WT-IR cells, immunoblot, 1 to 100 nM insulin for 15 minutes (printed together with Gab-1 and ERK phosphorylation) data for one molecule are collected here from PMC9927934.

For the experiment, the target named is L973F mutant human insulin receptor B isoform, FLAG tagged (human).

B1: Shc (natural protein)
chain: MDLLPPKPKYNPLRNESLSSLEEGASGSTPPEELPSPSASSLGPILPPLPGDDSPTTLCSFFPRMSNLKLANPAGGRLGPKGEPGKAAEDGEGSAGAALRDSGLLPLLQDMNKLSGGGGRRTRVEGGQLGGEEWTRHGSFVNKPTRGWLHPNDKVMGPGVSYLVRYMGCVEVLQSMRALDFNTRTQVTREAISLVCEAVPGAKGATRRRKPCSRPLSSILGRSNLKFAGMPITLTVSTSSLNLMAADCKQIIANHHMQSISFASGGDPDTAEYVAYVAKDPVNQRACHILECPEGLAQDVISTIGQAFELRFKQYLRNPPKLVTPHDRMAGFDGSAWDEEEEEPPDHQYYNDFPGKEPPLGGVVDMRLREGAARPTLPSAQMSSHLGATLPIGQHAAGDHEVRKQMLPPPPCPGRELFDDPSYVNIQNLDKARQAGGGAGPPNPSLNGSAPRDLFDMKPFEDALRVPPPPQSMSMAEQLQGEPWFHGKLSRREAEALLQLNGDFLVRESTTTPGQYVLTGLQSGQPKHLLLVDPEGVVRTKDHRFESVSHLISYHMDNHLPIISAGSELCLQQPVDRKV
In the case of B1, the Shc phosphorylation in L973F-IR cells against WT-IR cells, immunoblot, 1 to 100 nM insulin for 15 minutes (printed together with Gab-1 and ERK phosphorylation) lay in the range of 2 to 4 fold.
